Experimental data from US20160237144A1.

Columns and labels:
[1] = molecular target: TtSlyD-FKBP-A (Thermus thermophilus); assay: SPR (Biacore), 25 C; antibody (92 RU) captured on goat anti-rabbit Fc-gamma, TtSlyD-A as analyte; Langmuir fit
[2] = molecular target: TtSlyD-FKBP-A (Thermus thermophilus); assay: SPR (Biacore), 25 C; antibody captured on goat anti-rabbit Fc-gamma, TtSlyD-A as analyte; kd set to the instrument limit of 1e-05 1/s
[3] = molecular target: TtSlyD-FKBP-B (Thermus thermophilus); assay: SPR (Biacore), 25 C; antibody captured on goat anti-rabbit Fc-gamma, TtSlyD-B as analyte; kd set to the instrument limit of 1e-05 1/s
[4] = molecular target: TtSlyD-FKBP-A (Thermus thermophilus); assay: SPR (Biacore), 25 C; antibody captured on goat anti-rabbit Fc-gamma, TtSlyD-A as analyte; apparent affinity, kd set to the instrument limit
[5] = molecular target: TtSlyD-FKBP clone 3 C1 (Thermus thermophilus); assay: SPR (Biacore), 25 C; 1253 RU 0712pS4D5 captured on goat anti-rabbit antibody, scaffold 3C1 (18 kDa) captured by it
[6] = molecular target: TtSlyD-FKBP clone 5F8 (Thermus thermophilus); assay: SPR (Biacore), 25 C; 1141 RU 0712pS4D5 captured on goat anti-rabbit antibody, scaffold 5F8 (18 kDa) captured by it
[7] = molecular target: TtSlyD-FKBP-B (Thermus thermophilus); assay: SPR (Biacore), 25 C; antibody (89 RU) captured on goat anti-rabbit Fc-gamma, TtSlyD-B as analyte; Langmuir fit
[8] = molecular target: TtSlyD-FKBP-B (Thermus thermophilus); assay: SPR (Biacore B3000), antibody captured by GAR-Fcγ, scaffold in solution, 25° C.; dissociation beyond instrument limit
[9] = molecular target: TtSlyD-FKBP-A (Thermus thermophilus); assay: as above
[10] = molecular target: TtSlyD-FKBP-B (Thermus thermophilus); assay: SPR (Biacore), captured antibody, TtSlyD_B as analyte 0-300 nM, Langmuir fit
[11] = molecular target: TtSlyD-FKBP clone 3 F12 (Thermus thermophilus); assay: SPR (Biacore), 25 C; 1268 RU 0712pS4D5 captured on goat anti-rabbit antibody, scaffold 3F12 (18 kDa) captured by it
[12] = molecular target: TtSlyD-FKBP-B (Thermus thermophilus); assay: SPR (Biacore), 25 C; antibody captured on goat anti-rabbit Fc-gamma, TtSlyD-B as analyte; apparent affinity, kd set to the instrument limit
[13] = molecular target: TtSlyD-FKBP-A (Thermus thermophilus); assay: SPR (Biacore), captured antibody, TtSlyD_A as analyte 0-300 nM, Langmuir fit
[14] = molecular target: TtSlyD-FKBP-B (Thermus thermophilus); assay: SPR (Biacore), 25 C; antibody (212 RU) captured on goat anti-rabbit Fc-gamma, TtSlyD-B as analyte; Langmuir fit
[15] = molecular target: TtSlyD-FKBP-A (Thermus thermophilus); assay: SPR (Biacore), 25 C; antibody (223 RU) captured on goat anti-rabbit Fc-gamma, TtSlyD-A as analyte; Langmuir fit

Chain of TtSlyD-FKBP-B (Thermus thermophilus) (main, as listed by the source): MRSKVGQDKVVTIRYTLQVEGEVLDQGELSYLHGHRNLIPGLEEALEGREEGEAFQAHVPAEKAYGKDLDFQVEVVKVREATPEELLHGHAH
Chain of TtSlyD-FKBP-A (Thermus thermophilus) (main, as listed by the source): as above
Chain of TtSlyD-FKBP clone 3 F12 (Thermus thermophilus) (main, as listed by the source): as above
Chain of TtSlyD-FKBP clone 3 C1 (Thermus thermophilus) (main, as listed by the source): as above
Chain of TtSlyD-FKBP clone 5F8 (Thermus thermophilus) (main, as listed by the source): as above

koff [2] | koff [3] | Kd [4] | koff [8] | koff [9] | Kd [10] | MR (Molar Ratio) [10] | koff [10] | kon [10] | Kd [12] | Kd [13] | MR (Molar Ratio) [13] | koff [13] | kon [13] | Binder | other results
1e-05 s⁻¹ | 1e-05 s⁻¹ | 0.0299 nM | < 1e-05 s⁻¹ | < 1e-05 s⁻¹ | 0.037 nM | 1.9 | < 1e-05 s⁻¹ | 271000 M⁻¹ s⁻¹ | 0.0369 nM | 0.03 nM | 1.7 | < 1e-05 s⁻¹ | 335000 M⁻¹ s⁻¹ | RabMab 0712pS4D3 (antibody, V domains shown) VH: CQSLEESGGRLVKPGGSLTLTCTVSGFSLSSYAMIWVRQAPGKGLEWIGVISSLGITYYANWAKGRFTISKASTTVDLKIASPTIGDTATYFCARGFFAGGSNYYPLWGPGTLVTVSS VL: CQASETIINWCSWYQQKPGQPPKLLIYKASNLESGVPSRFKGSGSGTEFTLTISDLECADAATYYCQQGYGYRDLENPFGGGTEVVVKG | MR (Molar Ratio) [1]: 1.7; kon [1]: 335000 M⁻¹ s⁻¹; MR (Molar Ratio) [5]: 2; scaffold (RU) [5]: 267 RU; MR (Molar Ratio) [6]: 2; scaffold (RU) [6]: 254 RU; MR (Molar Ratio) [7]: 1.9; kon [7]: 271000 M⁻¹ s⁻¹; MR (Molar Ratio) [11]: 2; scaffold (RU) [11]: 286 RU
1e-05 s⁻¹ | 1e-05 s⁻¹ | 0.00787 nM | < 1e-05 s⁻¹ | < 1e-05 s⁻¹ | 0.023 nM | 1.4 | < 1e-05 s⁻¹ | 428000 M⁻¹ s⁻¹ | 0.0234 nM | 0.008 nM | 1.2 | < 1e-05 s⁻¹ | 1.27e+06 M⁻¹ s⁻¹ | RabMab 0612pS3A8 (antibody, V domains shown) VH: CQSVEESGGRLVTPGTPLTLTCTVSGFSLSSNAISWVRQAPGKGLEWIGIINNIGSTWYASWAKGRFTISKASSTTVDLKMTSLTTEDTATYFCARIVVNYNLGPYNLWGPGTLVTVSS VL: AFELTQTPSSVEAAVGGTVTIKCQATENIGNALAWYQQKPGQPPKLLIYRASTLASGVPSRFKGSGSGTDFTLTISDLECADAATYYCQSYYDIYTYVFGGGTEL | MR (Molar Ratio) [14]: 1.4; kon [14]: 428000 M⁻¹ s⁻¹; MR (Molar Ratio) [15]: 1.2; kon [15]: 1.27e+06 M⁻¹ s⁻¹
